Assay results: patent US20250258178A1 (SHIONOGI, published 2025)

T1: human histidine-rich glycoprotein (HRG), purified from human plasma (human, UniProt P04196 19-525)
T1 construct: also called human purified HRG; human purified HRG protein
T1 sequence: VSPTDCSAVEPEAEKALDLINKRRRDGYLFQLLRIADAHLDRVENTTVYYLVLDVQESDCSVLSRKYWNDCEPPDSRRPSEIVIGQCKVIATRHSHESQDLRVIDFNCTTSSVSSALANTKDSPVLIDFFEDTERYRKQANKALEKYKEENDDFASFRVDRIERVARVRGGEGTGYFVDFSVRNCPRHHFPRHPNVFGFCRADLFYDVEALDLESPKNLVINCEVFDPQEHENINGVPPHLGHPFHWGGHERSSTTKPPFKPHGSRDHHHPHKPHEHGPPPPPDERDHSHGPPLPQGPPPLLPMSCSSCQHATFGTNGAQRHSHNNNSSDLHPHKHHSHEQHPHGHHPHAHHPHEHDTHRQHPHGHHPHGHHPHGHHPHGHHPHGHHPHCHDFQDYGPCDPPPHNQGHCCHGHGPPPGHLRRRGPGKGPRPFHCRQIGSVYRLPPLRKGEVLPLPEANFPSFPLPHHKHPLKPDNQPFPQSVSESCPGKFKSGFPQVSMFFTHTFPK

B1: anti-HRG monoclonal antibody 69-1A (antibody, V domains shown)
VH: EVKLEESGGGLVQPGGSMKLSCAASGFTFSDAWMDWVRQSPEKGLEWVAEIRSKANNHGTYYAESVKGRFTISRDDSKSSVYLRMNSLSAEDTGIYYCTRPFAYWGQGTLVTVSA
VL: DVVVTQTPLSLPVSLGDQASISCRSSQSLVHIDGNTYFHWYVQKPGQSPKLLIYKVSNRFSGVPDRFSGSGSGTDFTLKISRVEAEDLGVYFCSQSTHVPLTFGAGTKLELK
notes: Mouse hybridoma monoclonal; also called clone No. 69-1A
B2: anti-HRG monoclonal antibody 75-2D (antibody, V domains shown)
VH: QVQLQQSGAELMKPGASVKISCKATGYTFSSYWIEWVKQRPGHGLEWIGEILPGSGRTNYNEKFKGKATFTADTSSNTAYMQLSSLTSEDSAVYYCARYSYFYYFDYWGQGTTLTVSS
VL: DNVLTQSPAIMSASLGERVTMTCTASSSVSSSYLHWYQQKPGSSPKLWIYSTSNLASGVPARFSGSGSGTSYSLTISSMEAEDAATYYCHQYHRSPWTFGGGTKLEIK
notes: Mouse hybridoma monoclonal; also called clone No. 75-2D

Tests used:
[1] = target: T1, human histidine-rich glycoprotein …; assay: sandwich ELISA, HRG captured by solid phase 3-4E
Experimental: (§1) The capture antibody solution was dispensed at 25 μL per well into 384-well Maxisorp plates (NUNC), and the plates were incubated at room temperature for 3 hours. The plates were washed twice with 120 μL of washing solution per well (0.05% Tween 20-containing PBS). A blocking solution (1% BSA-containing PBS) was dispensed at 30 μL per well, and the plates were incubated at room temperature for 3 hours. The blocking solution was removed followed by dispensing the standard substance for evaluation at 20 μL per well (n=2), and the plates were incubated at room temperature for 3 hours. After washing the plates four times with the washing solution as described above, the solution of each detector antibody was dispensed at 10 μL per well, followed by dispensing a horseradish peroxidase-streptavidin solution (0.05 μg/mL) at 10 μL per well, and the plates were incubated at room temperature for 1 hour. After washing the plates four times with the washing solution as described above, a chromogenic substrate solution (TMB (3,3′,5,5′-tetramethylbenzidine)) was dispensed at 20 μL per well followed by incubating the plates at room temperature for 10 minutes, then a reaction stop solution 0.5 M H₂SO₄ was added at 20 μL/well, and the absorbance at 450 nm was measured.
(§2) The results regarding the evaluation of combinations chosen from 21 types of anti-HRG monoclonal antibodies are shown in Table 1. In Table 1, the absorbance at a wavelength of 450 nm of each combination was determined as follows: less than 1.0 OD: −, 1.0 OD or more and less than 2.0 OD: +, 2.0 OD or more and less than 3.0 OD: ++, and 3.0 OD or more: +++. The combinations of antibodies which could construct a sandwich ELISA system having enough level of absorbance change were 86 sets evaluated as ++ or +++ in Table 1.

[2] = target: T1, human histidine-rich glycoprotein …; assay: sandwich ELISA, HRG captured by solid phase 50-6C-2A
Experimental: as §1, §2

[3] = target: T1, human histidine-rich glycoprotein …; assay: sandwich ELISA, HRG captured by solid phase 9-1F
Experimental: as §1, §2

[4] = target: T1, human histidine-rich glycoprotein …; assay: sandwich ELISA, HRG captured by solid phase 94-7A-3C-3D
Experimental: as §1, §2

[5] = target: T1, human histidine-rich glycoprotein …; assay: sandwich ELISA, HRG captured by solid phase 31-1H
Experimental: as §1, §2

[6] = target: T1, human histidine-rich glycoprotein …; assay: sandwich ELISA, HRG captured by solid phase 81-2C
Experimental: as §1, §2

[7] = target: T1, human histidine-rich glycoprotein …; assay: sandwich ELISA, HRG captured by solid phase 65-3A
Experimental: as §1, §2

[8] = target: T1, human histidine-rich glycoprotein …; assay: sandwich ELISA, HRG captured by solid phase 67-8A-5F
Experimental: as §1, §2

[9] = target: T1, human histidine-rich glycoprotein …; assay: sandwich ELISA, HRG captured by solid phase 6-12A-10B-9G
Experimental: as §1, §2

[10] = target: T1, human histidine-rich glycoprotein …; assay: sandwich ELISA, HRG captured by solid phase 13-2G
Experimental: as §1, §2

[11] = target: T1, human histidine-rich glycoprotein …; assay: sandwich ELISA, HRG captured by solid phase 88-2E
Experimental: as §1, §2

[12] = target: T1, human histidine-rich glycoprotein …; assay: sandwich ELISA, HRG captured by solid phase 19-1C
Experimental: as §1, §2

[13] = target: T1, human histidine-rich glycoprotein …; assay: sandwich ELISA, HRG captured by solid phase 35-3G-10C
Experimental: as §1, §2

[14] = target: T1, human histidine-rich glycoprotein …; assay: sandwich ELISA, HRG captured by solid phase 93-4C
Experimental: as §1, §2

[15] = target: T1, human histidine-rich glycoprotein …; assay: sandwich ELISA, HRG captured by solid phase 32-4C
Experimental: as §1, §2

[16] = target: T1, human histidine-rich glycoprotein …; assay: sandwich ELISA, HRG captured by solid phase 69-1A
Experimental: as §1, §2

Row | Binder | absorbance at 450 nm [4] | absorbance at 450 nm [5] | absorbance at 450 nm [6] | absorbance at 450 nm (OD450) [9] | absorbance at 450 nm [11] | absorbance at 450 nm [12] | absorbance at 450 nm [13] | absorbance at 450 nm (OD450) [14] | absorbance at 450 nm [15] | absorbance at 450 nm [16] | other results
1 | B1 | < 1 OD | < 1 OD | < 1 OD | 2 to 3 od | < 1 OD | < 1 OD | < 1 OD | 1 to 2 od | < 1 OD | < 1 OD | absorbance at 450 nm (OD450) [1]: ≥ 3 od; absorbance at 450 nm [2]: < 1 OD; absorbance at 450 nm [3]: < 1 OD; absorbance at 450 nm [7]: < 1 OD; absorbance at 450 nm [8]: < 1 OD; absorbance at 450 nm [10]: < 1 OD
2 | B2 | < 1 OD | < 1 OD | < 1 OD | ≥ 3 od | < 1 OD | < 1 OD | < 1 OD | 1 to 2 od | < 1 OD | < 1 OD | absorbance at 450 nm [1]: < 1 OD; absorbance at 450 nm (OD450) [2]: ≥ 3 od; absorbance at 450 nm (OD450) [7]: ≥ 3 od; absorbance at 450 nm (OD450) [8]: ≥ 3 od; absorbance at 450 nm (OD450) [10]: 2 to 3 od
